Data as given in PMC2821902 (Biochemistry, 2009).
Read-outs that look alike come from different tables or passages of the source.

Legend:
[1] = target: Dynein light chain LC8 (wild type) (UniProt Q24117); assay: NMR; conditions: cited from earlier work
[2] = target: the molecule itself; assay: NMR NZ-exchange spectroscopy
[3] = target: the molecule itself
[4] = target: the molecule itself; assay: NMR HSQC peak intensities of monomer and dimer signals in slow exchange
[5] = target: the molecule itself; remark: listed apart in the source
[6] = target: the molecule itself; assay: NMR NZ-exchange spectroscopy; remark: listed apart in the source

Dynein light chain LC8 (wild type)
KD ([1]; pH high pH (limit (so in the source))): < 1 µM | pKa, His55 of LC8 (dimer) ([1]; pH): < 4.5 pH units | pKa, His55 of LC8 (monomer) ([1]; pH): 6.5 pH units

B1: LC8 Ser88Glu mutant (phosphomimetic) (natural protein)
chain: MSDRKAVIKNADMSEEMQQDAVDCATQALEKYNIEKDIAAYIKKEFDKKYNPTWHCIVGRNFGSYVTHETRHFIYFYLGQVAILLFKEG
koff [2]: 1.9 to 5.7 s⁻¹ | kon [2]: 1200 to 3000 M⁻¹ s⁻¹ | KD of the protonation state His55+/His55+, Glu88/Glu88 (from the model) [3]: 25000 µM | KD of the protonation state His55+/His55+, Glu88/Glu88− (from the model) [3]: 110000 µM | KD of the protonation state His55+/His55+, Glu88−/Glu88− (from the model) [3]: 1.8e+07 mM | KD of the protonation state His55/His55+, Glu88/Glu88 (from the model) [3]: 17 µM | KD of the protonation state His55/His55+, Glu88/Glu88− (from the model) [3]: 6800 µM | KD of the protonation state His55/His55+, Glu88−/Glu88− (from the model) [3]: 12000 mM | KD of the protonation state His55/His55, Glu88/Glu88 (from the model) [3]: 0.071 µM | KD of the protonation state His55/His55, Glu88/Glu88− (from the model) [3]: 28 µM | Kd [4]: 930 µM

B2: wild-type dynein light chain LC8 (natural protein)
chain: MSDRKAVIKNADMSEEMQQDAVDCATQALEKYNIEKDIAAYIKKEFDKKYNPTWHCIVGRNFGSYVTHETRHFIYFYLGQVAILLFKSG
KD at neutral pH [5]: < 0.1 µM | koff [6]: 0.05 to 0.24 s⁻¹ | kon [6]: 1000 to 3000 M⁻¹ s⁻¹ | KD of the protonation state His55+/His55+ (from the model) [3]: 21000 µM | KD of the protonation state His55/His55 (from the model) [3]: 0.06 µM | KD of the protonation state His55/His55+ (from the model) [3]: 14 µM
